Experimental data reported in publication PMC10397247.
Like-named read-outs stand apart in the source and are kept apart here.

T1: P10-AA
T1 chain: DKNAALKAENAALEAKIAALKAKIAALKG

T2: AP4-AA
T2 chain: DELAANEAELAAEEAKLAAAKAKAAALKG

T3: AP6-AA
T3 chain: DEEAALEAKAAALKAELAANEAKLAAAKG

T4: AP2-AA
T4 chain: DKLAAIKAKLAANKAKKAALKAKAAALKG

T5: AP7-AA
T5 chain: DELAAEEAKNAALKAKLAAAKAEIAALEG

T6: AP8-AA
T6 chain: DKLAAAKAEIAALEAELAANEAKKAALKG

T7: P8-AA
T7 chain: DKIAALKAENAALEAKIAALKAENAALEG

T8: P3-AA
T8 chain: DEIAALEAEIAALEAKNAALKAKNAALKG

T9: P1-AA
T9 chain: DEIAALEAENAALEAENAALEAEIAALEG

T10: P7-AA
T10 chain: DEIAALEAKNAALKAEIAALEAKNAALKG

T11: P2-AA
T11 chain: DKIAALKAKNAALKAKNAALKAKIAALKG

T12: P4-AA
T12 chain: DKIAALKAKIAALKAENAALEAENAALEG

T13: 4H_BCR
T13 chain: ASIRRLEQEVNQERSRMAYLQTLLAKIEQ

T14: P11-AA
T14 chain: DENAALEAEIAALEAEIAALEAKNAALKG

T15: P12-AA
T15 chain: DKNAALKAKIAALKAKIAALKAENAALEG

T16: P9-AA
T16 chain: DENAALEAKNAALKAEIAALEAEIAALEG

T17: AP5-AA
T17 chain: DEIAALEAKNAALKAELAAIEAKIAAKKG

T18: AP1-AA
T18 chain: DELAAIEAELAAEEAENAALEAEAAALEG

T19: AP3-AA
T19 chain: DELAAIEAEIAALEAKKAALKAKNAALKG


Tests used:
Assay in all cases: two-hybrid library CCmax;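 further: natural log of median RNA to DNA barcode read ratio; higher means stronger binding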
P10-AA = molecular target: T1, P10-AA
AP4-AA = molecular target: T2, AP4-AA
AP6-AA = molecular target: T3, AP6-AA
AP2-AA = molecular target: T4, AP2-AA
AP7-AA = molecular target: T5, AP7-AA
AP8-AA = molecular target: T6, AP8-AA
P8-AA = molecular target: T7, P8-AA
P3-AA = molecular target: T8, P3-AA
P1-AA = molecular target: T9, P1-AA
P7-AA = molecular target: T10, P7-AA
P2-AA = molecular target: T11, P2-AA
P4-AA = molecular target: T12, P4-AA
4H_BCR = molecular target: T13, 4H_BCR
P11-AA = molecular target: T14, P11-AA
P12-AA = molecular target: T15, P12-AA
P9-AA = molecular target: T16, P9-AA
AP5-AA = molecular target: T17, AP5-AA
AP1-AA = molecular target: T18, AP1-AA
GCN2_T = molecular target: GCN2_T
AP3-AA = molecular target: T19, AP3-AA

| interaction score (P10-AA) | interaction score (AP4-AA) | interaction score (AP6-AA) | interaction score (AP2-AA) | interaction score (AP7-AA) | interaction score (AP8-AA) | interaction score (P8-AA) | interaction score (P3-AA) | interaction score (P1-AA) | interaction score (P7-AA) | interaction score (P2-AA) | interaction score (P4-AA) | interaction score (4H_BCR) | interaction score (P11-AA) | interaction score (P12-AA) | interaction score (P9-AA) | interaction score (AP5-AA) | interaction score (AP1-AA) | interaction score (AP4-AA; mean of both orientations) | interaction score (AP3-AA) | Binder | also measured |
| --- | --- | --- | --- | --- | --- | --- | --- | --- | --- | --- | --- | --- | --- | --- | --- | --- | --- | --- | --- | --- | --- |
| -0.731 | -1.76 | -2.3 | -1.83 | -1.94 | -0.758 | -1.41 | -1.01 | -1.41 | -1.07 | -1.85 | -2.3 | -1.42 | 0.988 | -1.53 | -0.77 | -0.968 | -1.7 |  |  | KRAKQLRKRLQALEWQLAQIRKELQAAEK [4H_APH3] |  |
|  |  |  |  |  |  |  | -1.19 |  |  |  |  |  |  |  |  |  | -1.8 | -1.14 |  | DELAAIEAELAAEEAENAALEAEAAALEG [AP1-AA] | interaction score (P10-AA; mean of both orientations): -1.61; interaction score (AP6-AA; mean of both orientations): -2.13; interaction score (AP2-AA; mean of both orientations): -1.59; interaction score (AP7-AA; mean of both orientations): -1.41; interaction score (AP8-AA; mean of both orientations): -1.34; interaction score (GCN2_T): -2.11; interaction score (P8-AA; mean of both orientations): -1.49; interaction score (P1-AA; mean of both orientations): -1.54; interaction score (P7-AA; mean of both orientations): -1.65; interaction score (P2-AA; mean of both orientations): 0.117; interaction score (P4-AA; mean of both orientations): -1.4; interaction score (P11-AA; mean of both orientations): -1.38; interaction score (P12-AA; mean of both orientations): -1.66; interaction score (P9-AA; mean of both orientations): -1.77; interaction score (AP3-AA; mean of both orientations): -1.43; interaction score (AP5-AA; mean of both orientations): -1.52 |
| -1.63 | -1.35 | -1.16 | -2.23 | -1.91 | -1.53 | -1.79 |  | -1.37 | -1.59 |  | -1.76 | -1.77 | -1.87 | -1.31 | -1.85 | -1.71 | -1.22 |  | -1.71 | KRLKQLRKRKQAKRWEEAQIEKELQAIEK [4H_APH2] |  |
| -1.38 |  | -2.8 | -2.2 | -2.06 | -1.39 | -2.2 | -1.05 | -2.2 | -1.7 | -1.88 | -2.31 | -1.95 | -1.36 | -2.07 | -1.79 | -1.61 |  | -1.78 | -1.44 | KRLKQIEKRLQAKEWEKAQLRKELQALRK [4H_APH4] | interaction score (AP1-AA; mean of both orientations): -1.81 |
